The values below come from PMC2567969.

The term Kd denotes the free concentration of one partner at which half of the binding sites on the other are occupied at equilibrium, for simple one-to-one binding. What is called koff is the first-order rate constant of dissociation. Read a high koff as fast dissociation. Broadly, the kon is the rate constant with which the complex forms. Low values mean slower complex formation, high ones faster complex formation.

Assay [1] concerns the target EGF receptor (Homo sapiens) (UniProt P00533). The following applies: cited from earlier work.
Assay [2] deals with Ik2-MBPHis fusion protein (Drosophila). Kind of assay: SPR; ProteOn XPR36, GLC chip; Ik2-MBPHis (1400 RU) and Sec13-MBP (5500 RU) amine-coupled; Spn-F injected at six concentrations 0.1625 to 5 μM; PBS pH 7.4, 0.005% Tween 20, 25°C; global fit to 1:1 Langmuir model.

As to EGF (from UniProt P01133), the dissociation constant (Kd) in assay [1] is 410 nM.

B1: Spn-F, recombinant, MBP-His6 tag cleaved (natural protein)
chain: MEASAAKITPMASSMSASGSTNSPSSEKMNYALQVALQTIKERCIQLQRRVASMEEENQQLREASSRSEGAPRANEIGVTGDVLSLKAQVSELQRQKEQLEEHIGMVSNENRRLWSRLSQISKDQQLNALPSSTDSRAQQNQNLVRSKTFTQHSPNPHLRQKMLSDGIKDLSLEEIALDDFGASSEELGYPYNLQKVEETTSEPDANVDAKRCLDGLQELRREAMKQQQELRSVMTLLENRIALKPCPECAQKTIKKPEMADKSLETDDSLTSELKNYESQHNGHNGTPPSQRINIIQEKIKADAADAMEKTCPMCGKQYSSQVSFNAFREHVEMHFIDDALELESENSIERQFEFVSHAVGDF
In assay [2], B1 came in with a Kd of 407 nM, a koff of 0.00169 s⁻¹ and a kon of 4150 M⁻¹ s⁻¹.
